Experimental findings from patent US20240424106A1, “CONJUGATE PHARMACEUTICAL PREPARATION, PREPARATION METHOD THEREFOR AND USE THEREOF” (COHERENT BIOPHARMA (SUZHOU) LIMITED, priority 2021, published 2024) are described below.

The nature of data set [1]: Screening of amount of pH regulator: dissolution in intermediate solutions. To be noted: 0.5% sodium citrate solution after mannitol was added and CR19213 was dissolved. In kind it is physicochemical. The protocol: The solubility of CR19213 is related to the pH value of a solution, and the amount of the pH regulator (expressed as the concentration of a buffer salt) directly influences the pH value of the solution. Therefore, the concentration of the buffer salt needs to be screened. Since CR19213 was added to the sodium citrate solution with pH 7.0, and completely dissolved to form an acidic solution, a 1.0% sodium citrate solution (11.4 mg/mL) with pH 7.5 (regulated with citric acid) was prepared in order to make the finished product be more near-neutral, and diluted with water to obtain sodium citrate solutions at concentrations of 0.1%, 0.25%, and 0.5%, respectively. Intermediate solutions were prepared using the above-mentioned sodium citrate solutions with different concentrations. The dissolution in the intermediate solutions during the preparation were investigated.
(1) a 1.0% sodium citrate solution with pH 7.5 (regulated with citric acid) was prepared for later use;
(2) dilution was carried out with water to obtain 0.1%, 0.25% and 0.5% sodium citrate solutions, respectively;
(3) a prescribed amount of mannitol was weighed, 70% of the total amount of the sodium citrate solution was added, stirring was carried out for dissolution, then a prescribed amount of CR19213 was added, and stirring was carried out for dissolution in a dark place at room temperature; and […]

Data set [2] is described as follows: Stated solubility and sensitivity of CR19213.

In data set [1], `CCC(C)C(C(CC(=O)N1CCCC1C(OC)C(C)C(=O)NC(C)C(O)c1ccccc1)OC)N(C)C(=O)C(NC(=O)C(C(C)C)N(C)C(=O)OCc1ccc(NC(=O)C(CCCNC(N)=O)NC(=O)C(NC(=O)CCCCCN2C(=O)CC(SCC(NC(=O)C(CCCCN)NC(=O)C(CC(=O)O)NC(=O)C(CC(=O)O)NC(=O)Cc3ccc(CNC(=O)NCCCCC(NC(=O)NC(CCC(=O)O)C(=O)O)C(=O)O)cc3)C(=O)NC(CCCCNC(=O)CCC(NC(=O)c3ccc(NCc4cnc5[nH]c(N)nc(=O)c5n4)cc3)C(=O)O)C(N)=O)C2=O)C(C)C)cc1)C(C)C` (stereo not drawn) [CR19213] came in with a pH value of 5.95. Moreover, in data set [2], the Oxidation in solution result is recorded as “easily oxidized”; the Sensitivity to temperature result is “sensitive”; the Solubility in water result is reported as “poorly soluble”; the “Stability to acids and alkalis” value is listed as “unstable”. Further, the Sensitivity to illumination result in data set [2] (raw material) is reported as “sensitive”.
